Measured values as given in patent US20200361992A1 (PROTAGONIST THERAPEUTICS, published 2020).
Starred links: 1 amine or outer side, 2 acyl side, 3 side chain; linkers in the order of their positions; H or OH if unused. Positions of bridges follow the written chain, without caps; N, C: chain ends. Non-standard residues stand in square brackets, D forms with d. Groups on a side chain read outwards from the residue. Primed or numbered codes have the meaning given here. *: point of attachment. PEG4′ = bifunctional PEG linker with 4 polyethylene glycol units; PEG12 = NCCOCCOCCOCCOCCOCCOCCOCCOCCOCCOCCOCCOCCC(=O)O; Docosanoyl = CCCCCCCCCCCCCCCCCCCCCC(=O)*; γGlu = O=C(O)[C@H](CCC(=O)[*:2])N[*:1]; Palmitoyl = CCCCCCCCCCCCCCCC(=O)*; Pen = CC(C)(S)[C@H](N)C(=O)O; Isovaleryl = CC(C)CC(=O)*; PEG2′ = not defined here; PEG8′ = not defined here; Ahx = NCCCCCC(=O)O; Sar = CNCC(=O)O

T1: human ferroportin (SLC40A1) fused with GFP, stably expressed in HEK293 cells (human, UniProt Q9NP59 1-571)
T1 sequence (looked up): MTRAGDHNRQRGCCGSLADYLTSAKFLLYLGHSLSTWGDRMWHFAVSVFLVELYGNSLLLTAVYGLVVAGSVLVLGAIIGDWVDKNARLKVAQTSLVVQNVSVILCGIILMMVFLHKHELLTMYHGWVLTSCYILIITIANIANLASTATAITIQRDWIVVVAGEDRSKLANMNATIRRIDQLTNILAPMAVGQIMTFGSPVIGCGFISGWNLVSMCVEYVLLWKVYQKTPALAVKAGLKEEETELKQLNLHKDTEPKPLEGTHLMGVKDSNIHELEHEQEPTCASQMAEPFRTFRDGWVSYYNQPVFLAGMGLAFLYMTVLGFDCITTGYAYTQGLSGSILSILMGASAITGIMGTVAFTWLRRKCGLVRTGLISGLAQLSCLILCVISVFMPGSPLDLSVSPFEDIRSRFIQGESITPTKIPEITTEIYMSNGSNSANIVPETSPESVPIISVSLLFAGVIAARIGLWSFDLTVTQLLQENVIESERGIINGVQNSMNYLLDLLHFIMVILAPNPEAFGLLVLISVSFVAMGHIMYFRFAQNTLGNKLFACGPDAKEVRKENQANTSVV


Biological target: T1, human ferroportin (SLC40A1) fused with …
Assay: cell-based or functional assay

Row | FPN IC50 [nM] | Binder
1 | 20 | DTHFPCIKXKKC (Isovaleric acid-DTHFPCI-[(D)Lys]-[bhomoPhe]-Lys[PEG11-Palm]-K-[Cys]-NH2) [Compd ID 103]
2 | 40 | Isovaleryl-DTHFPCI[dK]FK([PEG12-Palmitoyl])K[Pen]-NH2 (disulfide 6-12 (inferred)) [Compd ID 98]
3 | 28 | Isovaleryl-DTHFPCI[dK]FK([PEG8′-Palmitoyl])KC-NH2 (disulfide 6-12 (inferred)) [Compd ID 95]
4 | 16 | DTHFPCIKXKKC (Isovaleric acid-DTHFPCI-[(D)Lys]-[Dpa]-Lys[PEG11-Palm]-K-[Cys]-NH2) [Compd ID 100]
5 | 9 | Isovaleryl-DTHFPCI[dK]FK([PEG4′-γGlu-Palmitoyl])KC-NH2 (disulfide 6-12 (inferred)) [Compd ID 94]
6 | 11 | Isovaleryl-DTHFPCI[dK]FK([PEG2′-PEG2′-Ahx-Palmitoyl])KC-NH2 (disulfide 6-12 (inferred)) [Compd ID 90]
7 | 30 | Isovaleryl-DTHFPCI[dK]FK(Docosanoyl)KC-NH2 (disulfide 6-12 (inferred)) [Compd ID 96]
8 | 24 | DTHFPCIKXKKC (Isovaleric acid-DTHFPCI-[(D)Lys]-[b-homoPhe]-Lys[PEG11-Palm]-K-[Cys]-NH2) [Compd ID 101]
9 | 27 | DTHXPCIKFKKC (Isovaleric acid-D-T-H-[Dpa]-P-C-I-[(D)Lys]-F-Lys[PEG11-Palm]-K-[Cys]-NH2) [Compd ID 104]
10 | 21 | DTHFPCIKFKXC (Isovaleric acid-DTHFPCI-[(D)Lys]-F-Lys[PEG11-Palm]-Dap-[Cys]-NH2) [Compd ID 99]
11 | 13 | Isovaleryl-DTHFPCI[dK]FK([PEG2′-PEG2′-Palmitoyl])KC-NH2 (disulfide 6-12 (inferred)) [Compd ID 88]
12 | 41 | Isovaleryl-DTHFPCI[dK]FK([PEG12-Palmitoyl])K[dC]-NH2 (disulfide 6-12 (inferred)) [Compd ID 97]
13 | 14 | Isovaleryl-DTHFPCI[dK]FK([PEG4′-Palmitoyl])KC-NH2 (disulfide 6-12 (inferred)) [Compd ID 91]
14 | 31 | DTHXPCIKXKKC (Isovaleric acid-D-T-H-[Dpa]-P-C-I-[(D)Lys]-[b-homoPhe]-Lys[PEG11-Palm]-[(D)Lys]-[Cys]-NH2) [Compd ID 105]
15 | 21 | Isovaleryl-DTHFPCI[dK]FK([PEG4′-Ahx-Palmitoyl])KC-NH2 (disulfide 6-12 (inferred)) [Compd ID 92]
16 | 27 | Isovaleryl-DTHFPCI[dK]FK([PEG2′-PEG2′-C18 acid])KC-NH2 (disulfide 6-12 (inferred)) [Compd ID 89]
17 | 18 | Isovaleryl-DTHFPCI[dK]FK([PEG4′-PEG4′-Palmitoyl])KC-NH2 (disulfide 6-12 (inferred)) [Compd ID 93]
18 | 40 | Isovaleryl-DTHFPCIFK([PEG12-Palmitoyl])KC-NH2 (disulfide 6-11 (inferred)) [Compd ID 106]
19 | 17 | DTHFPCIKXKKC (Isovaleric acid-DTHFPCI-[(D)Lys]-[Nal]-Lys[PEG11-Palm]-K-[Cys]-NH2) [Compd ID 102]

The remaining lines, values behind:

Row | Binder | FPN IC50 [nM]
20 | Isovaleryl-DTHFPCI[dK]FK([PEG12-Palmitoyl])[dR]C-NH2 (disulfide 6-12 (inferred)) [Compd ID 81] | 9
21 | Isovaleryl-DTHFPCI[dK]FK([PEG12-Palmitoyl])HC[dH]-NH2 (disulfide 6-12 (inferred)) [Compd ID 84] | 16
22 | Isovaleryl-DTHFPCI[dK]FK([PEG12-Palmitoyl])RC[dR]-NH2 (disulfide 6-12 (inferred)) [Compd ID 85] | 27
23 | DTHFPCIKFKPRSKC (Isovaleric acid-DTHFPCIKF-Lys[PEG11-Palm]-PRSKC-NH2) [Compd ID 4] | 32
24 | Isovaleryl-DTHFPCI[dK]FK([PEG12-Palmitoyl])RC-NH2 (disulfide 6-12 (inferred)) [Compd ID 79] | 22
25 | Isovaleryl-DTHFPCI[dK]FK([PEG12-Palmitoyl])KC-NH2 (disulfide 6-12 (inferred)) [Compd ID 80] | 14
26 | DTHFPCIKFKPRSC (Isovaleric acid-DTHFPCIKF-Lys[PEG11-Palm]-PRSC-NH2) [Compd ID 5] | 30
27 | Isovaleryl-DTHFPCI[dK]FK([PEG12-Palmitoyl])PRSKCK-NH2 (disulfide 6-15 (inferred)) [Compd ID 75] | 14
28 | DTHFPCIKFKC (Isovaleric acid-DTHFPC(SH)I-[Lys]-[Phe]-Lys[PEG11-Palm]-C(SH)-NH2) [Compd ID 69] | 9
29 | Isovaleryl-DTHFPCI[dK]FK([PEG12-Palmitoyl])PRSKC-NH2 (disulfide 6-15 (inferred)) [Compd ID 73] | 11
30 | Isovaleryl-DTHFPCI[dK]FK([PEG12-Palmitoyl])[dK]C-NH2 (disulfide 6-12 (inferred)) [Compd ID 82] | 13
31 | Isovaleryl-DTHFPCI[dK]FK([PEG12-Palmitoyl])PRCK-NH2 (disulfide 6-13 (inferred)) [Compd ID 77] | 15
32 | DTHFPCIKFKPRC (Isovaleric acid-DTHFPCIKF-Lys[PEG11-Palm]-PRC-NH2) [Compd ID 6] | 17
33 | Isovaleryl-DTHFPCI[dK]FK([PEG2′-Ahx-Palmitoyl])C-NH2 (disulfide 6-11 (inferred)) [Compd ID 29] | 30
34 | Isovaleryl-DTHFPCI[dK]FK(Palmitoyl)C-NH2 (disulfide 6-11 (inferred)) [Compd ID 30] | 31
35 | Isovaleryl-DTHFPCI[dK]FK([PEG12-Palmitoyl])PC-NH2 (disulfide 6-12 (inferred)) [Compd ID 70] | 5
36 | Isovaleryl-DTHFPCI[dK]FK([PEG12-Palmitoyl])PRSC-NH2 (disulfide 6-14 (inferred)) [Compd ID 72] | 12
37 | Isovaleryl-DTHFPCI[dK]FK([Ahx-Palmitoyl])KC-NH2 (disulfide 6-12 (inferred)) [Compd ID 86] | 9
38 | Isovaleryl-DTHFPCI[dK]FK([PEG12-Palmitoyl])PPRSCK-NH2 (disulfide 6-15 (inferred); not fully specified) [Compd ID 76] | 16
39 | DTHFPCIKFKPRSKGC (Isovaleric acid-DTHFPCIKF-Lys[PEG11-Palm]-PRSKGC-NH2) [Compd ID 3] | 16
40 | Isovaleryl-DTHFPCI[dK]FK([PEG12-Palmitoyl])KC[dK]-NH2 (disulfide 6-12 (inferred)) [Compd ID 83] | 40
41 | Isovaleryl-DTHFPCI[dK]FK([PEG12-Palmitoyl])PRC-NH2 (disulfide 6-13 (inferred)) [Compd ID 71] | 8
42 | DTHFPCIKFKPC (Isovaleric acid-DTHFPC(SH)I-[Lys]-[Phe]-Lys[PEG11-Palm]-Pro-C(SH)-NH2) [Compd ID 67] | 13
43 | Isovaleryl-DTHFPCI[dK]FK([PEG12-Palmitoyl])C-NH2 (cysteine pairing not given here) [Compd ID 68] | 12
44 | Isovaleryl-DTHFPCI[dK]FK([PEG12-Palmitoyl])PRSK[Sar]C-NH2 (disulfide 6-16 (inferred)) [Compd ID 74] | 9
45 | Isovaleryl-DTHFPCI[dK]FK([PEG2′-Palmitoyl])KC-NH2 (disulfide 6-12 (inferred)) [Compd ID 87] | 15
46 | Isovaleryl-DTHFPCI[dK]FK([PEG12-Palmitoyl])CK-NH2 (disulfide 6-11 (inferred)) [Compd ID 78] | 17
